T1: Tir TirM (Escherichia coli, UniProt P0DJ92)
T1 chain: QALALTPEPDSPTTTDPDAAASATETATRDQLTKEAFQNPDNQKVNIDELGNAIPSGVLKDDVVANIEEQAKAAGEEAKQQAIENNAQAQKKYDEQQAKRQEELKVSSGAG

T2: Int280 of EHEC (C-terminal receptor-binding domain of intimin), His-tagged (enterohemorrhagic E. coli (EHEC) O157:H7, UniProt P43261 655-934)
T2 construct: also called Int280_(EHEC)
T2 sequence: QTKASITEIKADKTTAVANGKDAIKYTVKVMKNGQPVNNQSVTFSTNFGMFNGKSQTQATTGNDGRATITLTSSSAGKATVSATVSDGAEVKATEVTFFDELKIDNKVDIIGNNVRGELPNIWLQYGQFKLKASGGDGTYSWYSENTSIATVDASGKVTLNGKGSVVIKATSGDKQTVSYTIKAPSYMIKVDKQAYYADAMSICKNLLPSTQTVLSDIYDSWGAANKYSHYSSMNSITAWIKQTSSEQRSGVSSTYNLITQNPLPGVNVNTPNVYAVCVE


How the values were obtained:
Tir TirM = biological target: T1, Tir TirM; test: SPR
[1] = biological target: T2, Int280 of EHEC (C-terminal …); test: SPR; BiaCore3000; biotinylated TirM_(EHEC) immobilised on a Streptavidin SA chip at 150 RU; Int280 as analyte at 30 ul/min in HEPES-buffer; 1:1 Langmuir model; KD from koff/kon; settings: both partners purified

Binder	Kd (Tir TirM)	Kd [1]	koff [1]	kon [1]
Intimin Int280 Int280 (protein) QTKASITEIKADKTTAVANGKDAIKYTVKVMKNGQPVNNQSVTFSTNFGMFNGKSQTQATTGNDGRATITLTSSSAGKATVSATVSDGAEVKATEVTFFDELKIDNKVDIIGNNVRGELPNIWLQYGQFKLKASGGDGTYSWYSENTSIATVDASGKVTLNGKGSVVIKATSGDKQTVSYTIKAPSYMIKVDKQAYYADAMSICKNLLPSTQTVLSDIYDSWGAANKYSHYSSMNSITAWIKQTSSEQRSGVSSTYNLITQNPLPGVNVNTPNVYAVCVE	~40 nM	–	–	–
Biotinylated TirM of EHEC, His-tagged (domain or fragment, biotin (Biotinamidocaproate N-hydroxysuccinimide ester), also called biotinylated TirM_(EHEC)) QALALTPEPDSPTTTDPDAAASATETATRDQLTKEAFQNPDNQKVNIDELGNAIPSGVLKDDVVANIEEQAKAAGEEAKQQAIENNAQAQKKYDEQQAKRQEELKVSSGAG	–	48.1 nM	0.0375 s⁻¹	785000 M⁻¹ s⁻¹

— publication PMC6738647, “A nanobody targeting the translocated intimin receptor inhibits the attachment of enterohemorrhagic E. coli to human colonic mucosa” (PLoS Pathogens, 2019)
